In patent US20060051835A1 (published 2006):

B1: Myc-E2-25K (enzyme, human, UniProt P61086 2-200, looked up)
chain: ANIAVQRIKREFKEVLKSEETSKNQIKVDLVDENFTELRGEIAGPPDTPYEGGRYQLEIKIPETYPFNPPKVRFITKIWHPNISSVTGAICLDILKDQWAAAMTLRTVLLSLQALLAAAEPDDPQDAVVANQYKQNPEMFKQTARLWAHVYAGAPVSSPEYTKKIENLCAMGFDRNAVIVALSSKSWDVETATELLLSN
notes: whole, on cells; not shown: Myc tag
B2: Myc-UBCH6 (enzyme, UniProt P51965 2-193, looked up)
chain: SDDDSRASTSSSSSSSSNQQTEKETNTPKKKESKVSMSKNSKLLSTSAKRIQKELADITLDPPPNCSAGPKGDNIYEWRSTILGPPGSVYEGGVFFLDITFTPEYPFKPPKVTFRTRIYHCNINSQGVICLDILKDNWSPALTISKVLLSICSLLTDCNPADPLVGSIATQYMTNRAEHDRMARQWTKRYAT
notes: as for B1

Target: T1, FLAG-tagged Parkin (Wild type) (human, UniProt O60260 1-465)
T1 construct: whole, on cells; Plasmid described in Imai et al. 2000; also called FLAG-Parkin; the full-length Parkin; not shown: FLAG tag
T1 sequence (O60260 whole entry): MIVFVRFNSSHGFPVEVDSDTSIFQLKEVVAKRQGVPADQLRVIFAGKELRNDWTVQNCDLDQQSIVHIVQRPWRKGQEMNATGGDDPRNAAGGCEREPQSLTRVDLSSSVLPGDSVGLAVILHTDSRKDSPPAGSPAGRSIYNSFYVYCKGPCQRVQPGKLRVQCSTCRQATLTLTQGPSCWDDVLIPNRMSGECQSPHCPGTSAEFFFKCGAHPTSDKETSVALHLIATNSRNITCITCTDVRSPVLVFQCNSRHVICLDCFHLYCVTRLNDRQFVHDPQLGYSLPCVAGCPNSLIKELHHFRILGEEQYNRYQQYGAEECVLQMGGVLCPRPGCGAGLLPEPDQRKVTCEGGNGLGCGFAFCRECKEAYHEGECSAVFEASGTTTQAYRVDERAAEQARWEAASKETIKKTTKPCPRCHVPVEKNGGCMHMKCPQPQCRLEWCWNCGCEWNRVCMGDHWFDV
Experiment: co-immunoprecipitation from 293T cells (FLAG-IP, anti-Myc Western blot)
Source text: We have previously reported that the expression of Parkin is increased due to the stress induced by misfolded proteins, so as to have an effect of suppressing cell death resulting from the stress induced by misfolded proteins (Imai, Y. et al. (2000) J Biol Chem 275, 35661-35664). Against endoplasmic reticulum stress, a series of unfolded protein responses (UPR) including endoplasmic reticulum (ER)-associated degradation (ERAD), which regulate gene expression, are induced (Travers, K. J. et al., (2000) Cell 101, 249-258). ERAD degrades misfolded membrane proteins or secretory proteins with the degradation system within the cytoplasm (Plemper, R. K. et al., (1999) Trends Biochem Sci 24, 266-270). ERAD substrate was transported back through the membrane of the endoplasmic reticulum to the cytoplasm, in which it is ubiquitinated and degraded by the action of UBC6, UBC7, proteasome complex and the like (Biederer, T. et al., (1997) Science 278, 1806-1809; Bordallo, J. et al., (1998) Mol Biol Cell 9, 209-222; Gilon, T. et al., (2000) Mol Cell Biol 20, 7214-7219; Wilhovsky, S. et al., (2000) Mol Biol Cell 11, 1697-1708). […] Immunoprecipitates (FLAG-IP) immunoprecipitated with anti-FLAG monoclonal antibodies and soluble total cell extract (Total lysate) were analyzed by Western blotting (WB) using anti-FLAG or anti-Myc antibodies.

| Binder | binding result |
| --- | --- |
| B1 | no binding |
| B2 | no binding |
